Experimental data as given in patent US12364743B2, “Microbiota sequence variants of tumor-related antigenic epitopes” (ENTEROME S.A., priority 2016, dated 2025).

Tests used:
[1] = target: T1, HLA-A*0201 (Homo sapiens, UniProt P04439, D140Y/D185E/D98H/E176V/E277Q/G131W/G231S/I119V/I121R/I166T/I218V/L300P/L318F/N151K/N90K/P208A/P217A/Q86G/Q94H/R138H/R169H/T345S); experiment: Affinity of peptides to HLA-A*0201 on T2 cells (FACS, anti-HLA-A2); format: binding; conditions: for binding affinity to HLA-A*0201 compared among peptides: Example 5; for concentration inducing 20% of expression of the HLA-A*0201: 100% = reference peptide HIV pol 589-597 at 100 μM; for Mean fluorescence intensity: 16 hours
T1 construct: the human tumoral cell T2 which expresses the HLA-A*0201 molecule, but which is TAP 1/2 negative; endogenous in cells; host or cells: T2 cells (human, TAP 1/2 negative)
Excerpt: The experimental protocol is similar to the one that was validated for peptides presented by the HLA-A*0201 (Tourdot et al., A general strategy to enhance immunogenicity of low-affinity HLA-A2.1-associated peptides: implication in the identification of cryptic tumor epitopes. Eur J Immunol. 2000 December; […]:3411-21). Affinity measurement of the peptides is achieved with the human tumoral cell T2 which expresses the HLA-A*0201 molecule, but which is TAP 1/2 negative and incapable of presenting endogenous peptides.
T2 cells (2.10^5 cells per well) were incubated with decreasing concentrations of peptides from 100 μM to 0.1 μM in a AIMV medium supplemented with 100 ng/μl of human β2m at 37° C. for 16 hours. Cells were then washed two times and marked with the anti-HLA-A2 antibody coupled to PE (clone BB7.2, BD Pharmagen).
The analysis was performed by FACS (Guava Easy Cyte). […] A2. Solubilisation of Peptides
The experimental protocol, materials and methods correspond to those outlined in Example 4, with the only difference that the above mentioned antigenic peptides were used.

[2] = system: U87-MG cells; experiment: In vitro cytotoxicity of CD3+ T cells from immunized mice against U87 cells; format: cell-based; conditions: CD3+ T cells of mice immunized with the peptide; 72 hours co-culture; DAPI/annexin V cytometry
Procedure: Briefly, CD8 T cells from mice immunized with IL13RA2-H or […] were used. These cells were obtained after sorting of splenocyte from immunized mice and were placed on top of U87 cells (tumor cells expressing IL13RA2).
In more detail, CD3^+ T cells were purified from splenocytes of HHD mice immunized with IL13RA2-H ([…], SEQ ID NO: 1) or IL13RA2-B ([…], SEQ ID NO: 18). To this end, B6 β2 m^ko HHD/DR3 mice were injected s.c. at tail base with 100 μL of an oil-based emulsion containing vaccination peptide plus helper peptide plus CFA (complete Freund's adjuvant), at day 0 and day 14 as described in Example 5. On d21, i.e. seven days after the boost injection, the animals were euthanized and the spleen was harvested. Splenocytes were prepared by mechanical disruption of the organ. CD3+ purification was performed using the mouse total T cells isolation kit from Miltenyi biotec using the recommended procedure. […]
U87-MG cells were seeded at 6×10^5 cells/well in flat-bottomed 24-well culture plates and incubated for 24 h at 37° C. in DMEM (Dulbecco's Modified Eagle Medium) containing 10% of FCS (fetal calf serum) and antibiotics. […] 72 hours after co-culture of U87-MG cells and CD3+ T cells, all cells from the wells were harvested and specific U87-MG cell death was evaluated after immunostaining of CD45 negative cells with DAPI and fluorescent annexin V followed by cytometry analysis.

[3] = system: β/A2/DR3 mice; experiment: ELISPOT-IFNγ on splenocytes of vaccinated mice; format: in vivo, mouse; conditions: for percentage of ConA-induced response (mean+/−SEM): ELISPOT-IFNγ, vaccination 100 μg s.c. d0 and d14, spleen d21
Excerpt: Briefly, 14 β/A2/DR3 mice were assigned randomly (based on mouse sex and age) to two experimental groups, each immunized with a specific vaccination peptide (vacc-pAg) combined to a common helper peptide (h-pAg) (as outlined in Table 7 below). The vacc-pAg were compared in couples (group 1 vs. group 2). Thereby, both native and optimized versions of a single peptide were compared in each wave.
The animals were immunized on day o (do) with a prime injection, and on d14 with a boost injection. Each mouse was injected s.c. at tail base with 100 μL of an oil-based emulsion that contained: • 100 μg of vacc-pAg (25 μL of 4 mg/mL stock per mouse); • 150 μg of h-pAg (15 μL of 10 mg/mL stock per mouse); • 10 μL of PBS to reach a total volume of 50 μL (per mouse); • Incomplete Freund's Adjuvant (IFA) added at 1:1 (v:v) ratio (50 μL per mouse).
Seven days after the boost injection (i.e. on d21), the animals were euthanized and the spleen was harvested. Splenocytes were prepared by mechanical disruption of the organ followed by 70 μm-filtering and Ficoll density gradient purification.
The splenocytes were immediately used in an ELISPOT-IFNγ assay (Table 8). Experimental conditions were repeated in quadruplets, using 2*10^5 total splenocytes per well, and were cultured in presence of vacc-pAg (10 μM), Concanavalin A (ConA, 2.5 μg/mL) or medium-only to assess for their capacity to secrete IFNγ. The commercial ELISPOT-IFNγ kit (Diaclone Kit Mujrine IFNγ ELISpot) was used following the manufacturer's instructions, and the assay was performed after about 16 h of incubation.
Spots were counted on a Grand ImmunoSpot® S6 Ultimate UV Image Analyzer interfaced to the ImmunoSpot 5.4 software (CTL-Europe). Data plotting and statistical analysis were performed with the Prism-5 software (GraphPad Software Inc.).
The data were then normalized as a number of specific spots (the average counts obtained in the ‘medium only’ condition being subtracted) per 10^6 total T cells.
The individual average values (obtained from the quadruplicates) were next used to plot the group average values (see FIG. 3A). As the functional capacity of T cells might vary from individual to individual, the data were also expressed as the percentage of the ConA response per individual (see FIG. 3B).

[4] = system: unresectable or metastatic melanoma; conditions: patients; cited from earlier work
[5] = system: NSCLC; conditions: patients; cited from earlier work
[6] = system: renal cell carcinoma (RCC); conditions: patients; cited from earlier work
[7] = ex vivo re-stimulation with IL13RA2-B pAg 10 μM
[8] = ex vivo re-stimulation with IL13RA2-H pAg 10 μM

| Substance | binding affinity to HLA-A*0201 compared among peptides [1] | U87 cell lysis [2] | percentage of ConA-induced response (mean+/−SEM) [3, 7] | percentage of ConA-induced response (mean+/−SEM) [3, 8] | binding to HLA-A*0201 [1] | concentration inducing 20% of expression of the HLA-A*0201 [1] [µM] | Mean fluorescence intensity ([1]; peptide at 0.1 μM) | Mean fluorescence intensity ([1]; peptide at 1 μM) | Mean fluorescence intensity ([1]; peptide at 10 μM) | Mean fluorescence intensity ([1]; peptide at 100 μM) | also measured |
| --- | --- | --- | --- | --- | --- | --- | --- | --- | --- | --- | --- |
| 1A9V: SEQ ID NO: 1 with tryptophan at position 1 substituted by alanine and isoleucine at position 9 by valine (Eguchi et al., 2006) (ALPFGFILV; listed as Homo sapiens) | lowest affinity of the peptides tested |  |  |  |  |  |  |  |  |  |  |
| FLPFGFILV (sequence variant) [SEQ ID NO: 18] | considerably higher binding affinity to HLA-A*0201 than all other peptides tested | U87 cell lysis was observed | 56.3%+/−18.1 | 32.3%+/−11.8 | binds strongly | 4.4 | 9.9 | 12.18 | 40.77 | 112.05 | T cell responses in the ELISPOT-IFNγ assay ([3]; compared to IL13RA2-H-vaccinated animals): improved T cell responses; In vitro binding affinity ([1]; relative affinity = concentration inducing 20% of HLA-A*0201 expression / that of reference peptide HIV pol 589-597, lower = stronger): 0.49 |
| Ipilumumab: anti-CTLA-4 antibody |  |  |  |  |  |  |  |  |  |  | three-year survival rate [4]: around 20% |
| Nivolumab: check point inhibitor targeting PD1 |  |  |  |  |  |  |  |  |  |  | three-year survival rate [5]: 18%; three-year survival rate [6]: 44% |
| WLPFGFILI (listed as Homo sapiens) [SEQ ID NO: 1] |  | not | 2.0%+/−0.8 | 1.1%+/−0.8 | does not bind | 100 | 7.46 | 9.41 | 11.61 | 18.64 |  |
